# Experimental data: patent US12291562B2, “Reagents and assays using modified integrin domains” (Rush University Medical Center, priority 2019, dated 2025)
# B1: Clone 13: phage clone, VH only, SEQ ID NO: 66 (antibody, V domains shown)
# VH: EVQLLESGGGLVQPGGSLRLSCAASGFTFSSDLMSWVRQAPGKGLEWVSAISGSGGSTYYADSVKGRFTISRDNSKNTLYLQMNSLRAEDTAVYYCAKNEVIFDYWGQGTLVTVSSASTKGLSMFDYWGQGTKVEIK
# modifications: Clone 13
# B2: Clone 11: scFv phage clone, VH-linker-VK, SEQ ID NO: 65 (protein)
# scFv: EVQLVESGGGVVQPGRSLRLSCAATGFTFSNYGIHWVRQAPGKGLEWVAVTSYDGSNKYYADSVKGRFTISRDNSKNTLYLQMNSLRVEDTAVYYCAKDRGYYTYVFDYWGRGTLVTVSSGEGKSSGSGSESKASDVVMTQTPLSLPVTPGEPAAISCRSSQSLLHSNGYNYLDWYLQKPGQSPQLLIYLGSNRASGVPDRFSGSGSGTDFTLKISRVEAEDVGVYYCMQAVQTVD
# modifications: Clone 11
# B3: Clone 14: scFv phage clone, VK-Linker-VH, SEQ ID NO: 67 (protein)
# scFv: DVVMTQSPLSLPATLGQPASISCRSSQSLVYTDGNTYLNWFQQRPGQSPRRLIYKVSNRDSGVPDRFSGSGSGTHFTLKISRVEAEDVGVYYCMQGTHWPPTFGQGTKVEIKEGKSSGSGSESKASEVQLVQSGAEVKKPGASVKVSCKASGGTFSSYAISWVRQAPGQGLEWMGGIIPIFGTANYAQKFQGRVTITADESTSTAYMELSSLRSEDTAVYYCASSGVDYWGQGTLVTVSS
# modifications: Clone 14
# B4: Clone 8: clone from naïve human scFv phage display library enriched on BZ348014 (Table 5); not the VHH clone 8 (protein)
# scFv: DVQLVESGGGLVQPGGSLRLSCTASGFTFSNYAMNWVRQAPGKGLEWVSVISSSGSRRNYADSVKGRFTISRDNAKSTLYLQMNSLKPEDTAVYYCAKVRDAGYYRWNLNDLDYRGQGTQVTVSS
# modifications: Clone 8
# B5: Clone 5: scFv phage clone, VL-Linker-VH, SEQ ID NO: 63 (protein)
# scFv: SSELTQDPAVSVALGQTVRITCQGDSLRSYYASWYQQKPGQAPVLVIYGKNNRPSGIPDRFSGSTSGNFASLTITGAQAEDGADYYCHSRDSSGNHLVFGGGTKLTVLGEGKSSGSGSESKASEVQLVQSGAEVKKPGESLKISCKGSGYSFTSYWIGWVRQMPGKGLEWMGIIYPGDSDTRYSPSFQGQVTISADKSISTAYLQWSSLKASDTAMYYCARRARGAFDIWGQGTLVTVSS
# modifications: Clone 5
# B6: Clone 6: scFv phage clone, VL-linker-VH, SEQ ID NO: 64 (protein)
# scFv: QSVLTQPPSASGTPGQRVTISCSGSSSNIGSNYVSWYQQLPGTAPKLLIYDNNKRPSGIPDRFSGSKSGTSATLGITGLQTGDEADYYCGTWDSSLSALYVFGAGTKLTVLGEGKSSGSGSESKASQVQLQESGPGLVKPSETLSLTCSVSGGSTSSYYWSWIRQPPGKGLEWIGYISNSGSTNYNPSLKSRVTMSIDTSNNQFSLKLSSVTAADTAVYYCASHLGATWRWGQGTLVTVSS
# modifications: Clone 6
# Test system: not listed separately
# Assay: Phage ELISA on blocked well
# Type: binding
# Conditions: Table 5, scFv phage diluted 1:5
# Method: (§1) After 2 rounds of enrichment against the primary target, positive binders were identified by phage ELISA and analyzed by restriction mapping & sequencing for identification of unique clones. Small scale phage growths were diluted 1:5 in TBS+casein. Nunc Maxi-Sorp strip wells were coated at ˜5 μg/ml of each test protein overnight at 4° C. and blocked with TBS+casein. The diluted phage were applied and allowed to bind for 1 hour with shaking. The wells were washed 4 times with TBS+0.05% Tween20 and twice with TBS. Bound phage were detected by incubation for 1 hour with anti-M13-HRP and after washing as above, developed with TMB. Absorbance at 450 nm was read after acidification of the wells.
row,Molecule,"ELISA absorbance at 450 nM, Blocked well"
1,B1,0.043
2,B2,0.043
3,B3,0.044
4,B4,0.047
5,B5,0.045
6,B6,0.041

# Test system: CD11b A-domain polypeptides
# Assay: Conformation selectivity in counterscreen and dilution series ELISA
# Type: binding, human
# Conditions: conclusion from ELISA data
# Method: as §1
# High binding clones were included in a counterscreen ELISA against other CD11b A-domain polypetides which produced the following data:
# To confirm binding, a dilution series experiment was carried out. Select clones were subjected to a dilution series which generated the following data: […]
row,Molecule,Selectivity of binding to CD11b A-domain polypeptides mutationally stabilized in active conformation over the other conformations
1,B1,bound selectively
2,B3,bound selectively
3,B5,limited or no selectivity
4,B6,bound selectively

# Target: T1, BZ348014 (CD11b A-domain CD11bA-D242A/F275S/F302G) (Homo sapiens, UniProt P11215, D258A/F291S/F318G)
# T1 construct: MGS-8XHis-SG (N); TEV site (ENLYFQ) followed by GS linker (N); made in house; host or cells: E. coli BL21DE3 (pET-11d)
# T1 sequence (P11215 148-337 D258A/F291S/F318G): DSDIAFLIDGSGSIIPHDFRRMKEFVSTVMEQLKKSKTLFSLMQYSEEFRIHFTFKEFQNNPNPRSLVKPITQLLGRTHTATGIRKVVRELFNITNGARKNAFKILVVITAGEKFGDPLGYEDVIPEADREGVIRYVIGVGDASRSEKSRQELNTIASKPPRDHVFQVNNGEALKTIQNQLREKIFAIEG
# Assay: Phage ELISA on BZ348014
# Type: binding
# Conditions: Table 5; scFv phage diluted 1:5; after 2 rounds of enrichment
# Text: A naïve human scFv phage display library and VHH phage display library were screened against several integrin targets of interest. The screen involved phage ELISA followed by sequencing.
# Example experiment: A diverse naïve human scFv phage display library (Neoclone, LLC, Madison, WI) was enriched on BZ348014.
# as §1
row,Molecule,"ELISA absorbance at 450 nM, BZ348014"
1,B2,0.628
2,B4,0.060

# Target: T2, BZ348014 antigen (Homo sapiens, UniProt P11215, D258A/F291S/F318G)
# T2 construct: MGS-8XHis-SG (N); TEV site (ENLYFQ) followed by GS linker (N); made in house; host or cells: E. coli BL21DE3 (pET-11d)
# T2 sequence (P11215 148-337 D258A/F291S/F318G): as above
# Assay: VHH phage display library screening
# Type: binding
# Conditions: not given
# Method: A panning and enrichment of the BZ348014 antigen against a VHH phage display library (Neoclone, LLC, Madison, WI) was also conducted in an identical manner to the human scFv phage display library screen. One unique binder was identified, clone 8.
row,Molecule,Binder identified by panning and enrichment against BZ348014 antigen
1,B4,unique binder
